The values that follow come from US20170189545A1.

For assay [1], the target named is GLP-1 receptor. Briefly: comparison of IC50 values, competition with I-125 exendin-4 (9-39) on RIN-m5F cells.
Assay [2] concerns the target GLP-1 receptor. Put plainly: competition with I-125 exendin-4 (9-39) on RIN-m5F cells expressing GLP-1R, gamma counting.

Turning to C40-PEG5K-Ex4 (linear) (peptide), in assay [1], the fold better activity than Comparative example 1a (Lys^12-PEG5K-Ex4) was found to be 6 fold, the fold better activity than Comparative example 1b (Lys^27-PEG5K-Ex4) amounted to 2 fold and the fold better activity than Comparative example 2 (Nter-PEG5K-Ex4) stood at 120 fold. The same substance showed an IC50 in assay [2] of 1.04 nM.

Consider exendin-4 (peptide), for which the half-maximal inhibitory concentration (IC50) in assay [2] amounted to 0.23 nM.
